According to patent publication US20060251655A1:

B1: W808stop (C-terminal deletion variant of ADAMTS-13, FLAG appended) (protein)
chain: PSHFQQSCLQALEPQAVSSYLSPGAPLKGRPPSPGFQRQRQRQRRAAGGILHLELLVAVGPDVFQAHQEDTERYVLTNLNIGAELLRDPSLGAQFRVHLVKMVILTEPEGAPNITANLTSSLLSVCGWSQTINPEDDTDPGHADLVLYITRFDLELPDGNRQVRGVTQLGGACSPTWSCLITEDTGFDLGVTIAHEIGHSFGLEHDGAPGSGCGPSGHVMASDGAAPRAGLAWSPCSRRQLLSLLSAGRARCVWDPPRPQPGSAGHPPDAQPGLYYSANEQCRVAFGPKAVACTFAREHLDMCQALSCHTDPLDQSSCSRLLVPLLDGTECGVEKWCSKGRCRSLVELTPIAAVHGRWSSWGPRSPCSRSCGGGVVTRRRQCNNPRPAFGGRACVGADLQAEMCNTQACEKTQLEFMSQQCARTDGQPLRSSPGGASFYHWGAAVPHSQGDALCRHMCRAIGESFIMKRGDSFLDGTRCMPSGPREDGTLSLCVSGSCRTFGCDGRMDSQQVWDRCQVCGGDNSTCSPRKGSFTAGRAREYVTFLTVTPNLTSVYIANHRPLFTHLAVRIGGRYVVAGKMSISPNTTYPSLLEDGRVEYRVALTEDRLPRLEEIRIWGPLQEDADIQVYRRYGEEYGNLTRPDITFTYFQPKPRQAWVWAAVRGPCSVSCGAGLRWVNYSCLDQARKELVETVQCQGSQQPPAWPEACVLEPCPPYWAVGDFGPCSASCGGGLRERPVRCVEAQGSLLKTLPPARCRAGAQQPAVALETCNPQPCPARWDYKDDDDK
B2: W746stop (C-terminal deletion variant of ADAMTS-13, FLAG appended) (protein)
chain: PSHFQQSCLQALEPQAVSSYLSPGAPLKGRPPSPGFQRQRQRQRRAAGGILHLELLVAVGPDVFQAHQEDTERYVLTNLNIGAELLRDPSLGAQFRVHLVKMVILTEPEGAPNITANLTSSLLSVCGWSQTINPEDDTDPGHADLVLYITRFDLELPDGNRQVRGVTQLGGACSPTWSCLITEDTGFDLGVTIAHEIGHSFGLEHDGAPGSGCGPSGHVMASDGAAPRAGLAWSPCSRRQLLSLLSAGRARCVWDPPRPQPGSAGHPPDAQPGLYYSANEQCRVAFGPKAVACTFAREHLDMCQALSCHTDPLDQSSCSRLLVPLLDGTECGVEKWCSKGRCRSLVELTPIAAVHGRWSSWGPRSPCSRSCGGGVVTRRRQCNNPRPAFGGRACVGADLQAEMCNTQACEKTQLEFMSQQCARTDGQPLRSSPGGASFYHWGAAVPHSQGDALCRHMCRAIGESFIMKRGDSFLDGTRCMPSGPREDGTLSLCVSGSCRTFGCDGRMDSQQVWDRCQVCGGDNSTCSPRKGSFTAGRAREYVTFLTVTPNLTSVYIANHRPLFTHLAVRIGGRYVVAGKMSISPNTTYPSLLEDGRVEYRVALTEDRLPRLEEIRIWGPLQEDADIQVYRRYGEEYGNLTRPDITFTYFQPKPRQAWVWAAVRGPCSVSCGAGLRWVNYSCLDQARKELVETVQCQGSQQPPAWPEACVLEPCPPYWDYKDDDDK
B3: W897stop (C-terminal deletion variant of ADAMTS-13, FLAG appended) (protein)
chain: PSHFQQSCLQALEPQAVSSYLSPGAPLKGRPPSPGFQRQRQRQRRAAGGILHLELLVAVGPDVFQAHQEDTERYVLTNLNIGAELLRDPSLGAQFRVHLVKMVILTEPEGAPNITANLTSSLLSVCGWSQTINPEDDTDPGHADLVLYITRFDLELPDGNRQVRGVTQLGGACSPTWSCLITEDTGFDLGVTIAHEIGHSFGLEHDGAPGSGCGPSGHVMASDGAAPRAGLAWSPCSRRQLLSLLSAGRARCVWDPPRPQPGSAGHPPDAQPGLYYSANEQCRVAFGPKAVACTFAREHLDMCQALSCHTDPLDQSSCSRLLVPLLDGTECGVEKWCSKGRCRSLVELTPIAAVHGRWSSWGPRSPCSRSCGGGVVTRRRQCNNPRPAFGGRACVGADLQAEMCNTQACEKTQLEFMSQQCARTDGQPLRSSPGGASFYHWGAAVPHSQGDALCRHMCRAIGESFIMKRGDSFLDGTRCMPSGPREDGTLSLCVSGSCRTFGCDGRMDSQQVWDRCQVCGGDNSTCSPRKGSFTAGRAREYVTFLTVTPNLTSVYIANHRPLFTHLAVRIGGRYVVAGKMSISPNTTYPSLLEDGRVEYRVALTEDRLPRLEEIRIWGPLQEDADIQVYRRYGEEYGNLTRPDITFTYFQPKPRQAWVWAAVRGPCSVSCGAGLRWVNYSCLDQARKELVETVQCQGSQQPPAWPEACVLEPCPPYWAVGDFGPCSASCGGGLRERPVRCVEAQGSLLKTLPPARCRAGAQQPAVALETCNPQPCPARWEVSEPSSCTSAGGAGLALENETCVPGADGLEAPVTEGPGSVDEKLPAPEPCVGMSCPPGWGHLDATSAGEKAPSPWGSIRTGAQAAHVWDYKDDDDK

Molecular target: von Willebrand factor (vWF), prepared from plasma cryo fraction, P04275

| Protein | vWF cleaving activity (SDS-PAGE) |
| --- | --- |
| B1 | vWF cleaving activity was clearly recognized from the full-length molecule to W688stop molecule |
| B2 | vWF cleaving activity was clearly recognized from the full-length molecule to W688stop molecule |
| B3 | vWF cleaving activity was clearly recognized from the full-length molecule to W688stop molecule |
